# Experimental data from paper PMC8556256.
# B1: HA-tagged NRF2 (natural protein)
# chain: MMDLELPPPGLQSQQDMDLIDILWRQDIDLGVSREVFDFSQRQKDYELEKQKKLEKERQEQLQKEQEKAFFAQFQLDEETGEFLPIQPAQHIQTDTSGSASYSQVAHIPKQDALYFEDCMQLLAETFPFVDDHESLALDIPSHAESSVFTAPHQAQSLNSSLEAAMTDLSSIEQDMEQVWQELFSIPELQCLNTENKQLADTTAVPSPEATLTEMDSNYHFYSSISSLEKEVGNCGPHFLHGFEDSFSSILSTDDASQLTSLDSNPTLNTDFGDEFYSAFIAEPSDGGSMPSSAAISQSLSELLDGTIEGCDLSLCKAFNPKHAEGTMEFNDSDSGISLNTSPSRASPEHSVESSIYGDPPPGFSDSEMEELDSAPGSVKQNGPKAQPAHSPGDTVQPLSPAQGHSAPMRESQCENTTKKEVPVSPGHQKAPFTKDKHSSRLEAHLTRDELRAKALHIPFPVEKIINLPVDDFNEMMSKEQFNEAQLALIRDIRRRGKNKVAAQNCRKRKLENIVELEQDLGHLKDEREKLLREKGENDRNLHLLKRRLSTLYLEVFSMLRDEDGKPYSPSEYSLQQTRDGNVFLVPKSKKPDTKKN
# Biological target: Flag-tagged PITX2 R115L (mouse)
# Assay: co-IP; 293T cells co-transfected with PITX2-Flag (WT or R115L) and NRF2-HA or YAP1-HA; lysis in 50 mM Tris-HCl pH 7.5, 150 mM NaCl, 1% Nonidet P-40, 0.5% sodium deoxycholate; Flag immunoprecipitation at 4 °C overnight, six washes, blot with anti-HA; relative binding capacity = normalized IP-HA intensity / normalized IP-Flag intensity (ImageJ)
row,Molecule,reduction of relative binding capacity against WT PITX2 [%]
1,HA-tagged YAP1 (from UniProt P46938 1-488) (natural protein),89.1
2,B1,53.8
